The term stoichiometry N denotes a count of units in the complex or per binding partner.

The record followed here is paper PMC8256032, “Regulation of Dishevelled DEP domain swapping by conserved phosphorylation sites” (Proceedings of the National Academy of Sciences of the …, 2021).

In one series the target is SNAP-FZD5 (UniProt Q13467). In words: SNAP-FZD5-dependent recruitment of DEP-GFP to the plasma membrane (cell scoring). As to conditions: n = 100 cells scored in each case, read off a plot; for other: % of cells with strong recruitment (category 'strong'): parent: est. 98.
Series [1] deals with the molecule itself. In words: SEC-MALS; unfractionated purified Lip-DEP_(402–510), Lip tag kept; Tris-buffered saline (30 mM Tris, 300 mM NaCl, NaN3 0.03%, pH 7.4), Superdex S-200 10/300.
Series [2] deals with the molecule itself. In words: SEC-MALS; cleaved DEP monomer incubated with urea (0 to 5 M for wt; 3 M for the mutants) for 8 h at 25 °C, then SEC-MALS in Tris-buffered saline (30 mM Tris, 300 mM NaCl, pH 7.4); monomer to domain-swapped dimer. (In gel filtration, larger molecules generally elute earlier.)

Sequence of SNAP-FZD5 (Q13467 27-585): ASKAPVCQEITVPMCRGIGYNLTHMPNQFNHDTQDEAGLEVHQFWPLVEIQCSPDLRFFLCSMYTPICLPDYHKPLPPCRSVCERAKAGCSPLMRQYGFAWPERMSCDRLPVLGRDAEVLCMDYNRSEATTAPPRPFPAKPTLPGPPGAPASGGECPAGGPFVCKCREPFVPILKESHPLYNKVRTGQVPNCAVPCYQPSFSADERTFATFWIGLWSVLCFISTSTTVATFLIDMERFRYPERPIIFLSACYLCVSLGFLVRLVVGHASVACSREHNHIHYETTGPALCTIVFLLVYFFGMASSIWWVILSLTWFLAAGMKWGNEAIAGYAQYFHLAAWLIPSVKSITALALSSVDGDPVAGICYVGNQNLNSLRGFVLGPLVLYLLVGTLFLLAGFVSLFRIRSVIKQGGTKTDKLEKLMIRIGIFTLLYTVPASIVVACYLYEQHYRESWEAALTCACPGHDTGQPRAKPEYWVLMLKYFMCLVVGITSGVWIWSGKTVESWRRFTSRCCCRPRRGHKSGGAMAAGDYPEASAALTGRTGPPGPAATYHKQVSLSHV

As to “DEP tagged with GFP (DEP-GFP), wild type (from UniProt O14641) S418E”, in the series with SNAP-FZD5, the other: % of cells with strong recruitment (category 'strong') was 100 % of cells.
On the same count and under the same terms, as for “DEP tagged with GFP (DEP-GFP), wild type (from UniProt O14641) S435A”, the figure is 97 % of cells; as for “DEP tagged with GFP (DEP-GFP), wild type (from UniProt O14641) S418A”, 98 % of cells; as for “DEP tagged with GFP (DEP-GFP), wild type (from UniProt O14641) S435E”, 99 % of cells.
For the molecule “DEP tagged with GFP (DEP-GFP), wild type (from UniProt O14641) L445E”, the other: % of cells with no recruitment (category 'none') in the series with SNAP-FZD5 is 94 % of cells.

B1: Lipoyl-tagged DEP (Lip-DEP_(402–510)), wild type (domain or fragment, human, UniProt O14641 402-510, looked up)
chain: ITSGSSLPDGCEGRGLSVHTDMASVTKAMAAPESGLEVRDRMWLKITIPNAFLGSDVVDWLYHHVEGFPERREARKYASGLLKAGLIRHTVNKITFSEQCYYVFGDLSG
notes: also called Lip-DEP402 to 510; source: E. coli BL21-CodonPlus(DE3)-RIL, purified (NiNTA, SEC)
Turning to B1, in series [1], the “stoichiometry N” value is 2.

B2: Lip-DEP_(402–510) S435A (domain or fragment, human, UniProt O14641 402-510, looked up)
chain: ITSGSSLPDGCEGRGLSVHTDMASVTKAMAAPEAGLEVRDRMWLKITIPNAFLGSDVVDWLYHHVEGFPERREARKYASGLLKAGLIRHTVNKITFSEQCYYVFGDLSG
notes: source: E. coli BL21-CodonPlus(DE3)-RIL, purified (NiNTA, SEC)
As for B2, in series [1], the binding result is given as “binds”.

B3: Lip-DEP_(402–510) S418A (domain or fragment, human, UniProt O14641 402-510, looked up)
chain: ITSGSSLPDGCEGRGLAVHTDMASVTKAMAAPESGLEVRDRMWLKITIPNAFLGSDVVDWLYHHVEGFPERREARKYASGLLKAGLIRHTVNKITFSEQCYYVFGDLSG
notes: as for B2
Turning to B3, in series [1], the binding result is “binds”.

B4: Lip-DEP_(402–510) S418E (domain or fragment, human, UniProt O14641 402-510, looked up)
chain: ITSGSSLPDGCEGRGLEVHTDMASVTKAMAAPESGLEVRDRMWLKITIPNAFLGSDVVDWLYHHVEGFPERREARKYASGLLKAGLIRHTVNKITFSEQCYYVFGDLSG
notes: as for B2
As for B4, the binding result in series [1] is reported as “binds”.

B5: Lip-DEP_(402–510) S435E (domain or fragment, human, UniProt O14641 402-510, looked up)
chain: ITSGSSLPDGCEGRGLSVHTDMASVTKAMAAPEEGLEVRDRMWLKITIPNAFLGSDVVDWLYHHVEGFPERREARKYASGLLKAGLIRHTVNKITFSEQCYYVFGDLSG
notes: as for B2
Consider B5, for which, in series [1], the binding result is “binds”.

B6: cleaved wt DEP monomer (Lip tag removed) (domain or fragment, human, UniProt O14641 402-510, looked up)
chain: ITSGSSLPDGCEGRGLSVHTDMASVTKAMAAPESGLEVRDRMWLKITIPNAFLGSDVVDWLYHHVEGFPERREARKYASGLLKAGLIRHTVNKITFSEQCYYVFGDLSG
notes: also called monomeric DEP; source: E. coli BL21-CodonPlus(DE3)-RIL, purified (NiNTA, SEC), Lip tag removed by tobacco etch virus protease
Regarding B6, the “stoichiometry N” value in series [2] is 2.
